Experimental data from the DeepSol protein solubility set.

Test: soluble on expression in E. coli; label from the status in PepcDB or PDB records

| Sequence | soluble on expression in E. coli |
| --- | --- |
| MTKLALFVRLEAKPGQEAALADFLASALPLANAESGTTAWFALKFGPSTFGVFDAFADEAGRQAHLNGQIAAALMANAATLLSSPPNIEKVELLAAKLPA | soluble |
| TSALAPVAAIIPPPPDVQPVIDKLAEYVARNGLKFETSVRAKNDQRFEFLQPWHQYNAYYEFKKQFFLQKEGGDSMQAVSAPE | soluble |
| MRTEKEMIDLIMNTAKEDERIRAVIMNGSRVNPNVKKDCFQDFDIIYAVKDIRSFTSNHNWIHRFGEIMIVQMPEEMSLIPADEDGKFPYLMQFMDGNRIDLTLAPVELINNFVRQDSLSKLLLDKDNCMEGFPPASDKDYLIKKPTEKEFLDCCNEFWWCSTNVAKGLWREELSYVKGMLDGPVRDMLIVMLEWHIGMKTDFIVNAGKFGKHFEKYIEKDMWVQFKRTFSNAEYENIWESFFDMGNLFREVANEIANAYGYPYPQGDDDRVTSYLKHVKALPKDSTSIY | not soluble |
| MAENFVVVDGGVVAPKGFKANGHKDRKYGAALIYSEADAVAAGVFTTNKVYAHPVALSKDTLVNNNVFRAIVANSGNANCFTKGGMEDAELLVKKAAELLKIPENQVLSASTGVIGRKMPMDIISLEVERAFENITMESSNENASKAIMTTDAFPKTVAVEFEVNGKSVRIGGIAKGAGMIAPNMLHATMLGFITTDIEISKEDLTNSLQKATDESFNNAVVDGDMSTNDTVYVLANAQSGVKYTDCKEEFDHALTYVSKELAKMIVSDGEGAKKLIEATVFGAETKEDAKKASMSIVRSLLLKTAVFGADPNWGRIAAAVGYSGAEMDMNNFDIIISDISSEKQAILVKAGEQIADCGTPELKLAEEIMKEDKIKIIVDLKMGSFENTAFGCDLGYDYVKINSEYTTLEHHHHHH | not soluble |
| MNNIAAPDQSFNPAHVLSFDLETTSANPFEARIVTSALVRIDSSGAHPVELLADPGVEIPEAASKVHGISTEYAREHGEPHEAVLKRTVDEIYAAWEEGFTLVVYNAPYDLTVLRQLTGDFVVKGPVYDPYLIDRIMDRFRKGKRTLTDLCSVYGVRMDNAHEATSDALAAARIAWMQAKKRFKDDLAAYSHDELMEYQAVQYYELQKDMKKYLDGLGRDTSTVNFGWPMQNSR | not soluble |
| MDQNLKEQILELKRQKNAIILAHYYQRPEVQEIADFIGDSYNLSKIAKENDADTIVFCGVKFMAESAKVLSPQKKVLLPQPKAGCPMADMADAEGLAALKAKHPNAKVVSYINSSVEVKALCDTCCTSSNAAKIVKRIDSDEIIFLPDKNLGSYVQEMVPEKNIILWDGFCKVHNMIIPTDIEEMKNKYGDMKILAHPECWKPVRDMADFIGSTGAMIDYAEKDTTSDKYLVVTETGIMYKMQERVPNKTFYPLRSMVCVNMKATHLEDVYNSLVNSTFEINIEENLRQKALTSLENMLILGRLEHHHHHH | not soluble |
| MQCFNTIFRLFTDMDEDNEIGLPQKGINQIIKEVVPEMRIANESRDMINACCVEFVKHIAREAQRIASQDQRKTIYHEHVQKALQNLGFTPDYLEAADSVLDACKVEAEKKLRRKNSRLEKCGIPEEKLYEMQQELIQKARQQEIEQQLAHQQAQAAAVAAANAQMFGGPSEGSLAPTDDDYDN | soluble |
| MGHHHHHHSHMQSCESSGDSADDPLSRGLRRRGQPRVVVIGAGLAGLAAAKALLEQGFTDVTVLEASSHIGGRVQSVKLGHATFELGATWIHGSHGNPIYHLAEANGLLEETTDGERSVGRISLYSKNGVACYLTNHGRRIPKDVVEEFSDLYNEVYNLTQEFFRHDKPVNAESQNSVGVFTREEVRNRIRNDPDDPEATKRLKLAMIQQYLKVESCESSSHSMDEVSLSAFGEWTEIPGAHHIIPSGFMRVVELLAEGIPAHVIQLGKPVRCIHWDQASARPRGPEIEPRGEGDHNHDTGEGGQGGEEPRGGRWDEDEQWSVVVECEDCELIPADHVIVTVSLGVLKRQYTSFFRPGLPTEKVAAIHRLGIGTTDKIFLEFEEPFWGPECNSLQFVWEDEAESHTLTYPPELWYRKICGFDVLYPPERYGHVLSGWICGEEALVMEKCDDEAVAEICTEMLRQFTGNPNIPKPRRILRSAWGSNPYFRGSYSYTQVGSSGADVEKLAKPLPYTESSKTAPMQVLFSGEATHRKYYSTTHGALLSGQREAARLIEMYRDLFQQGT | soluble |
| MSLEKVKVAVIGAGNRGMYAYAPYIYENSDVCEIVAVAEPKKGRRELFTKKYNLDSKNVFETLEDFFKHDKMADAVIIATNDDRHYDVAKLALEKGYHVLLEKPMSNSLDGLVHIDDLCDKYKDKIFMICHVLRYSPFYNKLKEIVESKKLGELVSIQYNENIGYWHFAHSFTRGNWRNSNETSPLILAKSCHDMDILLYLVGSRCKKISAFGSLKHLNNQNASGEMAQNCLQCLVEKKCPYSAKRIYLEKDRSINRAVHINPTEENLLNILKTSPYGRCVYRCDNNVVDNMVNILQFENGVTATFNLCAFTKENGRTIKLMFSHGEVGGDLNKNEIRIKEFGKNEEIVMNPSNQQNMVEEYDRNLIAEFIKLVSNKELEKGRVAAKEAIQSHVMAFAAEYSRVSDEVVYIEEFFDSAKQMTKEIEETEGHHHHHH | soluble |
| MKTPVCSEEQGPARDVIAQLLEDALQVESQEQPEQAFVKPHLVSEFDIYGFRTVPDDDEEEKLVAKVRALDLKTLYLTDNQEVSTGVKWENYFASTMNREMACSPELKNLIRAGIPHEHRSKVWKWCVDRHTRKFKDSMEPDYFQTLLQKALEKQNPASKQIELDLLRTLPNNKHYSSPTSEGIQKLRSVLLAFSWRNPDIGYCQGLNRLVAVALLYLDQEDAFWCLVTIVEVFMPRDYYTKTLLGSQVDQRVFRDLLSEKLPRLHTHFEQYKVDYTLITFNWFLVVFVDSVVSDILFKIWDSFLYEGPKVIFRFALALFKYKEEEILKLQDSMSIFKYLRYFTRTILDARKLISISFGDLNPFPLRQIRNRRAYHLEKVRLELTELEAIREDFLRERDTSPDKGELVSDEEEDT | not soluble |
| MGSDKIHHHHHHMPTAAAQENIRWEECPPQVDIASAQCGSIDVPMHYSDPSLGDISVGFVKVPAQGEKHGTIFGNSGGPGGDAYSFFGSQSMNWPEAMYQNYDLVAVQPRGMVGSTPVNCDNIAPGYDFLSLLTREGAFVKESCEIGTPGYTSSLTTDNTANDWERVRQALGDDKISIFGLSYGTYLGSVYATRYPQHTDKVVLDSAMAPSLAWNGIMASQEQGYKNSLNDFFTWVAENNDTYGLGTTPLAVYQNWSNKIVAETGTNPTVAPPPAQVGDVPPAFAWAGQAGADMMTATNPTSVQLQGLATQLLNPGSNQSLSPLLNVTRAYIPQPSTWPMLAGAISGQTPIPDVTDTGDDPYVIESINASVNMQRMVMCNENTVAPDPVAMARMAWTSMVTGDVFDIYSVKFSSGQACSGITPTSGRQPTDGSQLAVQPLLLQGTSDPQTPYWTHNELADAMNAHVVTVNGPGHGQSIGGTNQAINDIVVDYLRTGHTDATWVEGNTPTPITAG | not soluble |
| MSPNPVEKAAILRIIDSIDARDDDYCAHEFNVYRWLVAYGNEEEEAAKALKRHLNIRKTIDLNSYSSKTELEEDELNKYVPIDVIGQNHQDDNKVLMFERTGKIDISGLVDNVLMHKFMQIKLKMMEGVHQKVVAAERKTGRQSGGLFIMDLDGISFSPKLISVLTGPYRIMWGTLFDHYPQLLQKIIIVNAPSFVNVLHQACSPFLPEDYKEKIVITSEPAIGAIQKHADKCFLPSDLGGDLEKTTSLPMAPFPKMNKKYEKEKEKVSLLAISVPAGKYTVQKFSWKKGDEVEFFLHNESSFHYFMFHSEEDTKDMDLWREMTVGCERPALSQIDSWKYTVPIDGFYFIRYGNHNSWYFSTTVNVNHFISNENGERIELVPIETFNI | not soluble |
| MSLVPRVMSTQHPDNARIPFFAASEVLNGEDEVREAYYVFSHFKCDEQMWDFEGKEADAHIVRKLLSSYYDFFSSRPLGKDFRLTMRVPNPEIEKGEAKLLAETLEMIPRSYDYVRSLGIEHPPIFEVILPMTRSAEEVMKVHAFYRDFVAGKGRFELLGEKVSDWLGDFLPEEIKVIPLFEDRDSLMRAAEISERYAEWAELDELRVFLARSDPAMNYGFVAATIYVKKALYDLSQLGISTYPILGVGSCPFRGGFSPKNLSVLDEFPSVYTFTVQSAFKYDYEFGDVRRAIKRAKEAARRKSDYVDEEHLQVAEKLKDGYRRRIAKIAEIVNRISSRIPRRRMRKLHVGLFGYSRGEEIKLPRAITFCASLYSIGLPSEIIGIAEMSDKDYEAVCEVFKNFDGMMESAMSLFNPESLKIVDLSMDFERAKELFGYEPDERHLEKTNEIIKQIDGDIKNLVVEAGILRGFLGEGHHHHHH | not soluble |
| MSLSEDLRFFEFFAGGGMARAGLGNQWQCLFANDMDRIKASTYIQNWGKDHFDSRDIREVNSEDLERNGDLAWASFPCQDLSVAGNGLGIGSSSAKDFTRSGALWPFLDLIDTLRQEERQPPLLVLENVVGLLTLEGGRDFAAICERLGEIGYRYGAVIIDAKHFLPQSRPRVFIIAVQRNIDIPCKLSRGMATANWHTPTLLRAYKSLTPILHADWVWWELGDAPILQENALESFIQREGVLWNTPEETKRIISMMAPAHLARLENAKCAGGVAVGSLYLRMRREGGINKQRAEITFSPLLGCLRTPRGGASRPRIIVVESGHVRTRLLTICEAARLMGLANTYILPEIYHHAFKVIGDGVAVPAVRFLAERLLEPLAIAAEGHHHHHH | not soluble |
| MPKFVVIELNDDAATIDLLSYCVKKNFERVSLLTRLEDHPYLRDDQDVVQDDTQSQGTDGMLLQLNDEERQRLMKMISTPGPQTLSMERIQMAPGQGQHILQQHQIPSTSSYTNNSFIYIKSDPQYKDEPQQQSNQFDATVNSVAHGQAGLSTLEMFACNGSPNGGDVLRRKTPSRKAEDSIKATCKVCGHDVMYSPQRTWNLMRHVWIMHQSSKPNQCSICGYSHIKPYVRKHIESQHKHDSNATIIDLKSPELEAEWSQLLDQCFGVTYRKWKHHKEDTQHTGGLLFDDDELRG | soluble |
| PLGLAPTASTTATLAMGDALAVALLIERGFRPEDFALFHPGGSLGKKLLLTVGDLMHSGDAVPLVGSATPIRDALFVITAKGLGITGVCAEDGALVGVVTDGDLRRSLGKGVDILNQPAGEIMTRNPKRINRSELAAKALQVMESHSITSLFVFDDTADNRPVGVIHLHDLLRA | not soluble |
| REKGIVEPSCGVTANAIMKLFLDKDGFSYCFENEQTLSLEQLQERLSCMPECKSFVLRVNDGALGHAYIVDIPKGENSCRPAFLYQSDLGEGVTRKLRFEDWMTHKALTPILLDDICNYFSCMSQNKTDLEQIATLFDIDGNVKMLRKENIQYQKHDNFSFQLFEYDTDNIEKNIEIIKSLCSGAAALEHHHHHH | soluble |
| MTARAVRGTKDLFGKELRMHQRIVATARKVLEAAGALELVTPIFEETQVFEKGVGAATDIVRKEMFTFQDRGGRSLTLRPEGTAAMVRAYLEHGMKVWPQPVRLWMAGPMFRAERPQKGRYRQFHQVNYEALGSENPILDAEAVVLLYECLKELGLRRLKVKLSSVGDPEDRARYNAYLREVLSPHREALSEDSKERLELNPMRILDSKSERDQALLKELGVRPMLDFLGEEARAHLKEVERHLERLSVPYELEPALVRGLDYYVRTAFEVHHEEIGAQSALGGGGRYDGLSELLGGPRVPGVGFAFGVERVALALEAEGFGLPEEKGPDLYLIPLTEEAVAEAFYLAEALRPRLRAEYALAPRKPAKGLEEALKRGAAFAGFLGEDELRAGEVTLKRLATGEQVRLSREEVPGYLLQALG | soluble |
| MVVKIKGKVFVFGDNVNTDEIIPARYLNTSDPQELAKYCMEDARPGFGRRDDIKGSIIVAGENFGCGSSREHAPVAIKAAGISCVIAKSFARIFFRNAINIGLPIVELKEADEFEEGDIAEVDLENGVVRNLTKGKEYRIRPYPEFLMKIMEAGGWLEYCLKEVGE | soluble |
